Measured values taken from US7109015B2, “Removal of N-terminal methionine from proteins by engineered methionine aminopeptidase” (Academia Sinica, priority 2004, dated 2006).
Where two headings read alike, the source gives them in different places.

Key:
[1] = target: RC-RNase6 (Escherichia coli, UniProt P0AE18, M206T/Q233G); details: substrate MQDWD (SEQ ID NO:12)-RC6; solubility −
Source text: (§1) The rpr (AF332139) gene encoding for the target protein, onconase, from Rana pipiens was tagged with NdeI and BamHI site at the 5′ and 3′ end, respectively, and inserted downstream of T7 promoter in the expression vector pET22b (Novagen) (Liao et al., 2003; Huang et al., 1998; Liao et al., 2000). The other target proteins were also cloned by the same method, including RC-RNase L1 (AF288642.2), RC-RNase 2 (AF242553), RC-RNase 3 (AF242554), RC-RNase 4 (AF242555), RC-RNase6 (AF242556) from Rana catesbeiana, CA150 (a transcription elongation regulator 1; NM_006706) and glutathione S-transferase (M14654).
(§2) The Escherichia coli methionine aminopeptidase gene (Accession Number M 15106) or its mutant was fused with the T7 promoter by three steps of PCR and inserted into the same pET22b vector containing a target protein, as described above, through SacI and HindIII. […] The second PCR was performed using the PCR product from step 1 as 5′ megaprimer, oligonucleotide 3 (5′[…]3′; SEQ ID NO:4) as 3′ primer, and the E. coli MetAP gene (M15101) as template (Huang et al., 1998; Ben-Bassat et al., 1987). The third PCR was to amplify the second PCR product using oligonucleotide 1 and oligonucleotide 3 as primers. The genes encoding the target protein and E. coli MetAP have their own T7 RNA polymerase promoter, but they may be transcribed into the same RNA molecule for cotranslation because only one transcription terminator exists, downstream of the MetAP gene. Alternatively, the MetAP gene alone may be directly subcloned into vector pET29b through the SacI and HindIII site.
(§3) The MetAP was expressed alone or co-expressed with a target protein, i.e., onconase and RC-RNaseL1, in E. coli BL21 (DE3) in the presence of 0.5 mM IPTG at 37° C.
(§4) Proteins in the cell pellet or in the soluble fraction were separated by 13.3% SDS-PAGE and contact-transferred to ProBlott™ membrane (Applied Bioystems) in transfer buffer (10 mM Tris-HCl, pH 7.5, 50 mM NaCl, 2 mM EDTA, 0.5 mM 2-mercaptoethanol) overnight. The five N-terminal residues of the transferred protein were determined by Edman degradation. The percentage of Met removal was calculated by dividing the amount of proteins initiated with the penultimate residue with the amount of total proteins (including proteins initiated with the penultimate residue and unprocessed protein initiated with Met) after the first degradation cycle. In theory, this percentage should remain the same after each degradation cycle. Therefore, in order to avoid experimental variation, the same calculation was made from five consecutive degradation cycles, e.g., M, Q, N, W and L for onconase. The efficiency of Met removal is reported as the mean values of at least three cycles. The mass spectrum analysis was carried out as described previously (Liao et al., 2003).

[2] = target: RC-RNase2 (Escherichia coli, UniProt P0AE18, M206T/Q233G); details: substrate MQNEW (SEQ ID NO:17)-RC2; solubility −
Source text: as §1, §2, §3, §4

[3] = target: CA150, a transcription elongation regulator 1 (Escherichia coli, UniProt P0AE18, M206T/Q233G); details: substrate MLAGA (SEQ ID NO:20)-CA150; solubility +
Source text: as §1, §2, §3, §4

[4] = target: RC-RNase3 (Escherichia coli, UniProt P0AE18, M206T/Q233G); details: substrate MQDWE (SEQ ID NO:11)-RC3; solubility −
Source text: as §1, §2, §3, §4

[5] = target: glutathione S-transferase (GST) (Escherichia coli, UniProt P0AE18, M206T/Q233G); details: substrate MQDIL (SEQ ID NO:21)-GST
Source text: as §1, §2, §3, §4

[6] = target: RC-RNaseL1 (Escherichia coli, UniProt P0AE18, M206T/Q233G); details: solubility −
Source text: as §1, §2, §3, §4

[7] = substrate MQNWA (SEQ ID NO:18)-RCL1

B1: MetAP-*TG (protein)
chain: AISIKTPEDIEKMRVAGRLAAEVLEMIEPYVKPGVSTGELDRICNDYIVNEQHAVSACLGYHGYPKSVCISINEVVCHGIPDDAKLLKDGDIVNIDVTVIKDGFHGDTSKMFIVGKPTIMGERLCRITQESLYLALRMVKPGINLREIGAAIQKFVEAEGFSVVREYCGHGIGRGFHEEPQVLHYDSRETNVVLKPGMTFTIEPTVNAGKKEIRTMKDGWTVKTKDRSLSAGYEHTIVVTDNGCEILTLRKDDTIPAIISHDE
In the case of B1, the “Catalytic activity (%): removal of N-terminal Met” value (shortened to “Catalytic activity (%): removal”) [1] is reported as 82%, the “Catalytic activity (%): percent of penultimate residue removed” value (“Catalytic activity (%): percent” below) [2] is reported as 56% and the “Catalytic activity (%): removal” value [2] is reported as 80%. For the same molecule, the “Catalytic activity (%): percent” value [3] was 71%, the “Catalytic activity (%): removal” value [3] was 100% and the “Catalytic activity (%): removal” value [4] was 96%. For the same molecule, the “Catalytic activity (%): removal” value ([5]; solubility +, same vector) was 87%, the “Catalytic activity (%): removal” value ([5]; solubility +, target in pET22b co-transformed with MetAP in pET29b) was 71% and the “Catalytic activity (%): removal” value ([5]; solubility −, same vector) was 85%. For the same molecule, the “Catalytic activity (%): removal” value ([5]; solubility −, target in pET22b co-transformed with MetAP in pET29b) was 70%, the “Catalytic activity (%): removal” value ([6]; substrate MQDWA (SEQ ID NO:19)-RCL1) was 99% and the “Catalytic activity (%): percent” value [6, 7] was 62%. For the same molecule, the “Catalytic activity (%): removal” value [6, 7] was 96%.
